Values joined by “and” are separate entries in the source; they are usually repeats but may differ in a detail not shown here. Equal entries are not always repeated. Blank lines part the entries; values can stand above or below the molecule they belong to.
Columns and labels:
[1] = biological target: His-tagged human NPM3 (human) (UniProt O75607); experiment: native gel or EMSA
[2] = biological target: His-tagged human NPM3 (human) (UniProt O75607); experiment: native MS
cross-linking = biological target: the molecule itself; experiment: cross-linking
His-tagged human NPM1 = His-tagged human NPM1 (human, UniProt P06748 1-294); experiment: native gel or EMSA
His-tagged human NPM1, sequence (P06748 whole entry): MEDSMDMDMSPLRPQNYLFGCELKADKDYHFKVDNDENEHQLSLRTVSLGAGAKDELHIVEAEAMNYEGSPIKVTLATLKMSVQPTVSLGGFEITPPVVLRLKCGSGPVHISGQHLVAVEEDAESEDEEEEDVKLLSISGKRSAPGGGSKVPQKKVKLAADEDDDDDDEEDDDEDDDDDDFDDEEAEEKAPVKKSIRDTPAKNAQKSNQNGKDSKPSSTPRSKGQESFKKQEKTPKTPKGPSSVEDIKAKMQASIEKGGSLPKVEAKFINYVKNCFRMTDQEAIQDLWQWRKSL

stoichiometry N [1]: 2
stoichiometry N [2]: 2
Molecule: His-tagged human NPM3 (from UniProt O75607 1-178) (natural protein)

B1: His-tagged human NPM2 (natural protein)
chain: MNLSSASSTEEKAVTTVLWGCELSQERRTWTFRPQLEGKQSCRLLLHTICLGEKAKEEMHRVEILPPANQEDKKMQPVTIASLQASVLPMVSMVGVQLSPPVTFQLRAGSGPVFLSGQERYEASDLTWEEEEEEEGEEEEEEEEDDEDEDADISLEEQSPVKQVKRLVPQKQASVAKKKKLEKEEEEIRASVRDKSPVKKAKATARAKKPGFKK
stoichiometry N (cross-linking): 5 and 10

stoichiometry N (His-tagged human NPM1): 4 NPM1 per NPM3 (NPM1:NPM3 4:1)
B2: His-tagged human NPM3 (natural protein)
chain: MAAGTAAALAFLSQESRTRAGGVGGLRVPAPVTMDSFFFGCELSGHTRSFTFKVEEEDDAEHVLALTMLCLTEGAKDECNVVEVVARNHDHQEIAVPVANLKLSCQPMLSLDDFQLQPPVTFRLKSGSGPVRITGRHQIVTMSNDVSEEESEEEEEDSDEEEVELCPILPAKKQGGRP
